Data taken from patent publication US20260042834A1 (HBM ALPHA THERAPEUTICS, published 2026).
Where a chain is given by its changes, count along the chain named. Values joined by “and” are separate entries in the source; they are usually repeats but may differ in a detail not shown here. Identical values can stand only once. Values belong to the binder of their own block, whether it stands above or below them.

Legend:
CRH (NT Biotin) = molecular target: T1, CRH (NT Biotin) (human and mouse, not fully specified; biotin at the N-terminus); assay: ELISA, biotin peptide on streptavidin plate
T1 peptide: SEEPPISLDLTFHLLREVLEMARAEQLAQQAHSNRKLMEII
Experimental: (§1) Streptavidin (Thermo, Cat: 21125) was diluted in PBS to a concentration of 2 μg/ml. 100 μl of diluted streptavidin was added per well to ELISA microplates, and the plates were incubated overnight at 4° C. […] 100 μL of 3,3′,5,5′-tetramethylbenzidine (TMB) substrate (Biopanda, Cat: TMB-S-003) was added, and the plates were incubated at room temperature for 15 minutes. 100 μL of ELISA stopping solution (Solarbio, Cat #: C1058) was added to terminate the reaction, and the optical density at 450 nm (OD450 nm) was determined by an ELISA plate reader (Molecular Devices, Spectra max 384 plus).

CRH (CT Biotin) = molecular target: T2, CRH (CT Biotin) (human and mouse, C-terminal K-Biotin); assay: ELISA, biotin peptide on streptavidin plate
T2 construct: also called Peptide 4 (CRH-Biotin)
T2 peptide: T1 peptide
Experimental: as §1

human UCN1 peptide = molecular target: T3, human UCN1 peptide (human, UniProt P55089 83-122); assay: cell-based or functional assay
T3 peptide (looked up): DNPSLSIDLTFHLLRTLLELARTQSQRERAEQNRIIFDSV

[1] = molecular target: T4, corticotropin-releasing hormone (CRH) peptide (human and mouse, not fully specified); assay: cell-based or functional assay
T4 peptide: T1 peptide

biotinylated CRH = molecular target: T5, biotinylated CRH (human and mouse, not fully specified; biotinylated, position not stated); assay: Octet BLI, biotinylated CRH on SA sensor
T5 construct: also called Biotin-CRH; biotin-labeled CRH
T5 peptide: T1 peptide
Experimental: Octet® Red 96e was used for affinity measurement. Octet® running buffer was prepared by diluting kinetics buffer 10× (Fortebio, Cat #18-1105) in PBS according to the manufacturer's instructions. Two columns of SA sensors (Fortebio, Cat #18-5019) were hydrated in running buffer for 10 mins, one for ligand capturing and the other for reference. Antibodies were 2-fold diluted and added into a 96-well plate. […] After a 60-second baseline step, sensors were dipped into analyte and buffer wells successively, with the association and dissociation time of 180 seconds and 800 seconds, respectively. […] Signals of reference wells and reference sensors were subtracted by selecting “Double reference” before data fitting.

human UCN3 peptide = molecular target: T6, human UCN3 peptide (human, UniProt Q969E3 120-157, not fully specified; biotin at N- or C-terminus in the ELISA); assay: ELISA, biotinylated hUCN3 on streptavidin plates
T6 construct: also called hUCN3; hUCN3 (NT Biotin)
T6 peptide (looked up): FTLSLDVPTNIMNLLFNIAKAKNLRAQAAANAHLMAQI
Experimental: (§2) Streptavidin (Thermo, Cat: 21125) was diluted in PBS with a concentration of 2 μg/mL. 100 μL of diluted streptavidin was added per well to ELISA microplates, and the plates were incubated overnight at 4° C. Plates were blocked with ELISA blocking solution (containing 2% w/v BSA, 0.05% (v/v) Tween-20, pH 7.4 PBS buffer) at 37° C. for 1 hour, and then incubated with either 1 μg/mL hUCN1 (NT Biotin), hUCN1 (CT Biotin), hUCN2 (NT Biotin), hUCN2 (CT Biotin), hUCN3 (NT Biotin), or hUCN3 (CT Biotin) for 1 hour at 37° C. […] 100 μl of TMB Substrate (Biopanda, Cat: TMB-S-003) was added, and the plates were incubated at room temperature for 15 minutes. 100 μL of ELISA stopping solution (Solarbio, Cat #: C1058) was then added to terminate the reaction, and the OD450 nm was determined by an ELISA plate reader (Molecular Devices, Spectra max 384 plus).

human UCN2 peptide [2] = molecular target: T7, human UCN2 peptide (human, UniProt Q96RP3 72-109, limits assumed, not fully specified; biotin at N- or C-terminus in the ELISA); assay: ELISA, biotinylated hUCN2 on streptavidin plates
T7 construct: also called hUCN2; hUCN2 (NT Biotin)
T7 peptide (looked up): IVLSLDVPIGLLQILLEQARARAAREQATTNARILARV
Experimental: as §2

human UCN2 peptide [3] = molecular target: T7, human UCN2 peptide; assay: ELISA on streptavidin-captured hUCN2 (NT biotin) and hUCN2 (CT biotin), mAb at 100 nM and 10 nM; axis labelled RLU, scale 0-4
Experimental: as §2

hUCN1 (CT Biotin) = molecular target: T8, hUCN1 (CT Biotin) (human, UniProt P55089 83-122, biotin at the C-terminus); assay: ELISA, biotin peptide on streptavidin plate
T8 construct: also called human UCN1 (CT biotin)
T8 peptide (looked up): T3 peptide (looked up)
Experimental: as §1

hUCN1 (NT Biotin) = molecular target: T9, hUCN1 (NT Biotin) (human, UniProt P55089 83-122, biotin at the N-terminus); assay: ELISA, biotin peptide on streptavidin plate
T9 construct: also called human UCN1 (NT biotin)
T9 peptide (looked up): T3 peptide (looked up)
Experimental: as §1

[4] = molecular target: T10, corticotropin-releasing hormone (CRH) peptide (human and mouse (same sequence), not fully specified); assay: cell-based or functional assay
T10 peptide: T1 peptide

B1: PR302341 (antibody, human IgG1, kappa, V domains shown)
VH: EVQLQQSGPELVKPGASVKMSCKASGYTFTDYFMKWVKQSHGESLEWIGVINPNNGDIFYNQKFKGKATLTVDKSSSTAFMQLNSLTSEDSAVYSCARGTDRALFAYWGQGTLVAVSA
VL: DVLMTQTPLSLPVSLGDQASISCRSGQSIVHSDGNTYLEWYLQRPGQSPRLLIYKVSNRFSGVPDRFSGSGSGTDFTLKISRVGAEDLGIYYCFQGSHIPWTFGGGTKLEVKR
notes: Series 10; mouse variable domains with human IgG1 wildtype Fc
EC50 (CRH (NT Biotin)): 0.023 nM
EC50 (CRH (CT Biotin)): 0.017 nM
CHO-CRE-hCRHR1 1 nM hUCH1 IC50 (human UCN1 peptide): 19 nM
hUCN1 IC50/ CRH IC50 (human UCN1 peptide): 40 fold
CHO-CRE-hCRHR1 0.5 nM CRH IC50 [1]: 0.503 nM and 0.437 nM
Kd (biotinylated CRH): < 0.001 nM
koff (biotinylated CRH): 2.18e-07 s⁻¹
kon (biotinylated CRH): 1.01e+06 M⁻¹ s⁻¹

B2: PR302341-34 (antibody, human IgG1, kappa, V domains shown)
VH: QVQLVQSGAEVKKPGASVKVSCKASGYTFTDYFMKWVRQAPGQGLEWMGVINPNQGDIFYNQKFKGRVTMTVDKSISTAYMELSRLRSDDTAVYYCARGTDRALFAYWGQGTLVTVSS
VL: DVVMTQSPLSLPVTLGQPASISCRSGQSIVHSDANTYLEWYQQRPGQSPRLLIYKVSNRFSGVPDRFSGSGSGTDFTLKISRVEAEDLGVYYCFQGSHIPWTFGGGTKVEIKR
notes: Humanized, PTM-removed variant of PR302341
binding result (human UCN3 peptide): no binding (tested: 100 nM)
binding result (human UCN2 peptide [2]): no binding (tested: 100 nM)

B3: PR302341-34 (antibody, human IgG1, kappa, V domains shown)
VH: B2 VH
VL: B2 VL
notes: as for B2
binding result (human UCN2 peptide [3]): no binding (tested: 100 nM)
EC50 (hUCN1 (CT Biotin)): 0.03 nM and 0.022 nM
EC50 (hUCN1 (NT Biotin)): 0.019 nM and 0.016 nM
EC50 (CRH (NT Biotin)): 0.025 nM and 0.038 nM
EC50 (CRH (CT Biotin)): 0.027 nM
CHO-CRE-hCRHR1 1 nM hUCH1 IC50 (human UCN1 peptide): 21.9 nM and 30 nM
CHO-CRE-hCRHR1 0.5 nM CRH IC50 [1]: 0.616 nM
Kd (biotinylated CRH): < 0.001 nM

B4: PR302309-8 (antibody, human IgG1, kappa, V domains shown)
VH: QIQLVQSGSELKKPGASVKVSCKASGYTFTNYGMNWVRQAPGQGLEWMGWINTYTGEPIYTDDFKGRFVFSLDTSVSTAYLQISSLKAEDTAVYYCSRSTMITTGGVFAYWGQGTLVTVSS
VL: B2 VL with G26S, S28T, A34G, I99V
notes: Humanized variant of PR302309
binding result (human UCN3 peptide): no binding (tested: 100 nM)
binding result (human UCN2 peptide [2]): no binding (tested: 100 nM)

B11: PR006669 (antibody, human IgG1, kappa, V domains shown)
VH: EVQLVESGGGLVQPGGSLRLSCAASGFTFSDNWMSWVRQAPGKGLEWVANIKQDGSENYYVDSVKGRFTISRDNAKNSLYLQMNSLRAEDTAVYYCSRGLALWGWGQGTLVTVSS
VL: DIVMTHSPLSLPVTPGDPASISCRSSQSLLHSTGYNYLDWYLQKPGQSPQLLIYLGSNRASGVPDRFSGSGSGTDFTLKFIRVEAEDVGVYYCMQALQTPYTFGQGTKLEIKR
hCRHR1 Luciferase Reporter Assay IC50 [4]: 7.38 nM
mCrhr1 Luciferase Reporter Assay IC50 [4]: 28.9 nM

B12: PR006745 (antibody, human IgG1, kappa, V domains shown)
VH: B11 VH with G55A
VL: B11 VL
hCRHR1 Luciferase Reporter Assay IC50 [4]: 13.2 nM
mCrhr1 Luciferase Reporter Assay IC50 [4]: 76.2 nM

B13: PR004290 (antibody, human IgG1, kappa, V domains shown)
VH: EVQLVESGGVLVQPGGSLRLSCAASGFTFSSYWMTWVRQAPGKGLEWVANIKQDGSEKYYVDSVKGRFTISRDNAKNSLFLQMNSLRAEDTAVYYCARTLIFDYWGQGTLVTVSS
VL: B11 VL with H6Q, D17E, Y37S, D39E, F80I, I81S, V90I, A96T, Y101I, K108R
notes: Series 1; human IgG1 wildtype Fc; also called hybridoma clone 28b3
binding result (human UCN3 peptide): no binding (tested: 100 nM)
binding result (human UCN2 peptide [2]): no binding (tested: 100 nM)

B14: PR004290 (antibody, human IgG1, kappa, V domains shown)
VH: B13 VH
VL: B11 VL with H6Q, D17E, Y37S, D39E, F80I, I81S, V90I, A96T, Y101I, K108R
notes: Series 1; human IgG1 wildtype Fc; also called Hybridoma Clone 28b3
EC50 (hUCN1 (CT Biotin)): > 1 nM
EC50 (hUCN1 (NT Biotin)): 1.59 nM
EC50 (CRH (NT Biotin)): 0.05 nM
EC50 (CRH (CT Biotin)): 0.065 nM
CHO-CRE-hCRHR1 0.5 nM CRH IC50 [1]: 5.41 nM and 3.49 nM

B15: PR006746 (antibody, human IgG1, kappa, V domains shown)
VH: B11 VH with G55S
VL: B11 VL
hCRHR1 Luciferase Reporter Assay IC50 [4]: 10 nM
mCrhr1 Luciferase Reporter Assay IC50 [4]: 46.4 nM

Other lines, results leading:

binding result (human UCN3 peptide): no binding (tested: 100 nM)
binding result (human UCN2 peptide [2]): no binding (tested: 100 nM)
B5: PR302341-28 (antibody, human IgG1, kappa, V domains shown)
VH: B2 VH
VL: B2 VL with A34G
notes: as for B2

binding result (human UCN3 peptide): no binding (tested: 100 nM)
binding result (human UCN2 peptide [2]): no binding (tested: 100 nM)
B6: PR302341-60 (antibody, human IgG1, kappa, V domains shown)
VH: B2 VH with G44R, M70I, V72R, K74T, I76A, R85S, D89E
VL: B2 VL
notes: as for B2

binding result (human UCN3 peptide): no binding (tested: 100 nM)
binding result (human UCN2 peptide [2]): no binding (tested: 100 nM)
B7: PR302341-48 (antibody, human IgG1, kappa, V domains shown)
VH: B2 VH with I76T, R85S, D89E
VL: B2 VL with S7T, L11S, S48P, S72A
notes: as for B2

binding result (human UCN3 peptide): no binding (tested: 100 nM)
binding result (human UCN2 peptide [2]): no binding (tested: 100 nM)
B8: PR302309-11 (antibody, human IgG1, kappa, V domains shown)
VH: B4 VH
VL: DIVMTQTPLSSPVTLGQPASISCRSSQTIVHSDGNTYLEWLQQRPGQPPRLLIYKVSNRFSGVPDRFSGSGAGTDFTLKISRVEAEDVGVYYCFQGSHVPWTFGGGTKVEIKR
notes: Humanized variant of PR302309

binding result (human UCN3 peptide): no binding (tested: 100 nM)
binding result (human UCN2 peptide [2]): no binding (tested: 100 nM)
B9: PR303394 (antibody, human IgG1, kappa, V domains shown)
VH: EVQLQQSGPELVKPGVSMKISCKASGYSFTDSTMNWVKQSHGKNLEWIGLIHPDNGGTIYNQKFKGKATLTVHKSSSTAYMELLSLTSEDSAVYYCANGFAYWGQGTLVTVSA
VL: DVVMTQTPLSLPVSLGDQASISCRSSQSLLHSNGNTYLHWYLQKPGQSPELLIYKVSNRFSGVPDRFSGSGSGTDFTLKISRVEAEDLGVYFCSQSTHVPLTFGAGTKLELKR
notes: also called analog of CTRND05

binding result (human UCN3 peptide): no binding (tested: 100 nM)
binding result (human UCN2 peptide [2]): no binding (tested: 100 nM)
B10: PR302064 (antibody, human IgG1, kappa, V domains shown)
VH: EMQLVESGGGLVKPGGSLRLSCAASGFTFSNYWMNWVRQAPGKGLEWVAEIRLKSNNYATHYAESVKGRFTISRDDSKSTVYLQMNSLKTEDTAVYYCTVGTLVYWGQGTLVTVSS
VL: DIVLTQSPDSLAVSLGERATINCRASQSVSTSTYNYMHWFQQKPGQPPKLLIKFASNLESGVPDRFSGSGSGTDFTLTISSLQAEDTAVYYCQHSWEIPYTFGQGTKLEIKR
notes: Humanized variant of PR301777; human IgG1-WT-Fc

binding result (human UCN3 peptide): no binding (tested: 100 nM)
binding result (human UCN2 peptide [2]): no binding (tested: 100 nM)
B16: PR005660 (antibody, human IgG1, kappa, V domains shown)
VH: B13 VH with D54E
VL: DIVMTQSPLSLPVTPGEPASISCRSSQSLLHSTGYQSLEWYLQKPGQSPQLLIYLGSNRASGVPDRFSGSGSGTDFTLKISRVEAEDVGIYYCMQTLQTPITFGQGTRLEIKR
notes: ΔPTM variant of PR004290
